Test results as given in the supplement of paper PMC9170038.

Test system: MS2 coat protein
Test: apparent KD of MS2 coat protein; designed switch direction (-1 OFF switch, 1 ON switch): -1; higher = weaker reporter binding
How it was run: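 Apparent KD, taken as the median over clusters for each design, was obtained by curve-fitting normalised cluster fluorescence. Designed RNA switches had been transcribed on Illumina chips by stalled E. coli RNA polymerase and titrated with SNAP-549-labelled MS2 coat protein, doubling from 0.7 or 1.5 nM to 3 µM.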

[1] = input ligand: microRNA oligo, concentration not stated
[2] = Eterna round: R95, input ligand: microRNA oligo, concentration not stated
[3] = Eterna round: R95, input ligand: FMN 200 uM
[4] = Eterna round: R95, input ligand: none

Sequence | apparent KD of MS2 coat protein (input ligand: FMN 200 uM) [nM] | apparent KD of MS2 coat protein (input ligand: none) [nM] | apparent KD of MS2 coat protein [1] [nM] | apparent KD of MS2 coat protein [2] [nM] | apparent KD of MS2 coat protein [3] [nM] | apparent KD of MS2 coat protein [4] [nM]
UUAUAACAUGAGGAUCACCCAUGUUAGGAUAUCGCAGUAAGCUUCAGUAAUGAGCAUUCGAGAAGGAACGGGUA [Eternabot (L2) Solution 63] (Eterna round: R97, puzzle: Exclusion 1) | 22 | 22 |  |  |  | 
UUCGGCGGAGGAUAUACAGUUUUUUGUUGAAUCGGCGGGAAACAUGAGGAUCACCCAUGUAGAAGGUUGUUGAA [-18.7, -16.7 kcal, A 27%] (Eterna round: R97, puzzle: Exclusion 2) | 63.3 | 78 |  |  |  | 
AGAUCACAUGAGGAUCACCCAUGUCAGGAUAUCGUCACUGGAGCUUCGGCUCCAGUGACGAGAAGGGAUAAUUA [E1/4-A1] (Eterna round: R97, puzzle: Exclusion 1) | 124 | 55 |  |  |  | 
GUUGUACAUGAGGAUCACCCAUGUCAGGAUAUCCACCUCAGAAAGUAUACAGGAUUGUGGAGAAGGGACAUUAA [EX1 C.18] (Eterna round: R97, puzzle: Exclusion 1) | 56 | 48.5 |  |  |  | 
UUAUUAUAUGUAGGAUAUGCGUAUUAUUAUUAUGCAGAAGGACAUGAGGAUCACCCAUGUAUAUUAUUAUUAUAUAUUAUAUAU [Title] (Eterna round: R96, puzzle: Exclusion NG 1) |  |  | 23.5 |  |  | 
AUGUUGCGAGGAUAUAUAAGGGUAUAUUAAUAAGAUAUGGAACAUGAGGAUCACCCAUGUAGAAGGUGCAUAAC [JR_Ex2_Sub041] (Eterna round: R97, puzzle: Exclusion 2) | 45.6 | 33.6 |  |  |  | 
AAUAACAGAGGAUAUACUGUUUUAUGUGUUUAUUAUUUUAAACAUGAGGAUCACCCAUGUAGAAGGCUGAAUAA [JMF 13] (puzzle: Exclusion 2) |  |  |  | 37 |  | 
GCACUCUUGUGAGGAUAUCGUUAAGGGACUUAACGAGAAGGUACAUGAGGAUCACCCAUGUGGAUCCUCCCGUUUGGAUCACUU [Eternabot solution 3] (Eterna round: R96, puzzle: Exclusion NG 1) | 177 | 112 | 103 |  |  | 
CUUUUGUGAGGAUAUCAGUAGUAAAGAAAUAAAAUUACUACUGAGAAGGCACAUGAGGAUCACCCAUGUUCCUC [Mat - Exclusion 4 - Mod of Salish - D62] (puzzle: Exclusion 4) |  |  |  | 36.2 |  | 
GCACUGCGAGGAUAUACAUGAGGAUCACCCAUGUGUCGGCAGACAUGGUUAAUCUAAGGUAGAAGGCGCGUAAA [JR_Ex3_Sub004] (Eterna round: R97, puzzle: Exclusion 3) | 16.3 | 993 |  |  |  | 
CGCUACGAAGUCAGGAUAUCAGAACAAGAUAAAUAUGAGAAGGGACAUGAGGAUCACCCAUGUUCGGUGGUAGC [BmEX4 A.14] (Eterna round: R97, puzzle: Brourd's mod of Exclusion 4) | 24.6 | 21.1 |  |  |  | 
UUUUUACAUGAGGAUCACCCAUGUCAGGAUAUCCUUAUAUUUUAUUAUUUUAUUUUUUGGAGAAGGGACUAUUA [My solution] (Eterna round: R96, puzzle: Exclusion 1) | 362 | 322 | 282 |  |  | 
ACUAGAUGAGGAUAUGCAUAUUUUCGUGUUCUUCUAGGUUAACAUGAGGAUCACCCAUGUAGAAGGCGUCUAUA [Exclusion 2 - 22] (puzzle: Exclusion 2) |  |  |  | 21.3 |  | 
AGUAGAUCUACGCUUGCGUGGAUCUGCAAUGCAGGUGUUACAUGAGGAUCACCCAUGUCCUCGUUUGCUCGUCUUAU [JL turnoff v2 99.12] (puzzle: Sensor v3, turn-off variant 2) |  |  |  | 664 | 209 | 222
GAUUAUGCGAGCUUUAGGGACAUGAGGAUCACCCAUGUUCGUCUUAUUAGUCUGAAUGCACUGACAUACCUAAAUCU [JMF 75] (puzzle: Sensor v3, turn-off variant 1) |  |  |  | 17.7 | 16.2 | 16.1
GUUGUUACUGAGGAUAUUAUUUUAUUCGAUUGAUAAGAAGGCAGUACAUGAGGAUCACCCAUGUGGGUAGUUAG [Polaris21] (Eterna round: R97, puzzle: Exclusion 6) | 270 | 338 |  |  |  | 
AGUACUAACACGUUUGUGUUAGUACAAUAAGCUUGUGAAACAUGAGGAUCACCCAUGUCCUCAUAAGCUCGUCUUAU [salish99_TOv2_r3_069] (puzzle: Sensor v3, turn-off variant 2) |  |  |  | 567 | 17.4 | 16.3
GCCGUUAAGGUAGGAUAUGCUCGGUCUGUUCGUGCAGAAGGGCUGGUCGGCGACUUGAGGAUCACCCAAGUGGUCUUAUAGAAA [Mutated MS2 EX1.19] (Eterna round: R96, puzzle: Exclusion NG 1) | 99.6 | 54.8 | 52.3 |  |  | 
